Experimental findings from PMC6604391 are described below.

Test [1] addresses casein.
Test [2] addresses casein. This is another data set of the same source.

Read-outs that look alike come from different tables or passages of the source.

As for “SPPS, serine alkaline protease from Pleurotus sajor-caju strain CTM10057 (enzyme)”, the Km of casein hydrolysis (Lineweaver-Burk, pH 9.5, 70 °C) in test [1] is 0.275 mg/mL; in test [2], 0.295 mg/mL.
